{"source": "paper PMC2943728", "binders": {"B1": {"name": "45AG 1-nt gapped DNA (dsDNA)", "DNA 1": "GCCTCGCAGCCGTCCAACCAAC", "DNA 2": "CAACCTCGATCCAATGCCGTCC", "DNA 3": "GGACGGCATTGGATCGAGGTTGAGTTGGTTGGACGGCTGCGAGGC", "modifications": "5'-phosphate on downstream oligo and template"}}, "biological_target": "DNA polymerase beta (WT pol β) (UniProt P06746 1-335)", "assay": "EMSA"}
{"binder": "B1", "values": [{"measurement": "Kd", "result": 78, "unit": "nM"}]}
